Assay results reported in patent publication US20190127459 (published 2019).

Target: T1, mouse IL-22R (mouse, UniProt Q80XZ4)
T1 chain: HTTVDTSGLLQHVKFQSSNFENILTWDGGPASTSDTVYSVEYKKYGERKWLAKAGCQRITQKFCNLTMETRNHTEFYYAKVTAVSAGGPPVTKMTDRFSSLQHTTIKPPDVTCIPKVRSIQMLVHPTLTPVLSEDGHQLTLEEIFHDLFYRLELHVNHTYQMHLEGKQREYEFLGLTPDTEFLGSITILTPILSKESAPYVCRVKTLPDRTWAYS

binding result: no binding
B1: 230C9 (antibody, V domains shown)
VH: QVQLVESGGGLVQPGGSLRLSCAASGFTFSSYDMNWVRQAPGKGLEWVSSIYNDASNTAYSDSVKGRFTISRDNSKNTLYLQMNSLRAEDTAVYYCAKVGFSGTYYSESWGQGTLVTVSS
VL: SYELTQPSSVSVALGQTARITCQGGYYAHWYQQKPGQAPVLVIYGQNNRPSGIPERFSGSGAGNTATLTISRAQAEDEADYYCQSGSSSSNAVFGGGTKLTVL
